# Article PMC3080401, “Oligomerization of the E. coli Core RNA Polymerase: Formation of (α2ββ'ω)2–DNA Complexes and Regulation of the Oligomerization by Auxiliary Subunits”
# Columns and labels:
# [1] = target: RNA polymerase core enzyme (alpha2 beta beta' omega);RapA (Escherichia coli;Escherichia coli, UniProt P0A7Z4;P0A8V2;P0A8T7;P0A800;P60240 1-329;1-1342;1-1407;1-91;1-968, |); assay: EMSA; 160 nM core, RapA titration; shifts to single-copy core-RapA-DNA complex; EMSA buffer D (1x): 20 mM Tris-acetate, 10 mM Mg acetate, 50 mM K acetate, 1 mM DTT, pH 7.8; native PAGE in 0.5x TBE running buffer; 37 C for the tac and slyD template reactions, otherwise temperature not stated; settings: protein: native;recombinant; tags: ;; chain copies: 2;1;1;1;1; label: 5'-32P
# [2] = target: RNA polymerase core enzyme (alpha2 beta beta' omega);NusA (Escherichia coli;Escherichia coli, UniProt P0A7Z4;P0A8V2;P0A8T7;P0A800;P0AFF6 1-329;1-1342;1-1407;1-91;1-495, |); assay: EMSA; 160 nM core, NusA titration; tandem core-DNA complex dissociated to single copy; EMSA buffer D (1x): 20 mM Tris-acetate, 10 mM Mg acetate, 50 mM K acetate, 1 mM DTT, pH 7.8; native PAGE in 0.5x TBE running buffer; 37 C for the tac and slyD template reactions, otherwise temperature not stated; settings: protein: native;recombinant; tags: ;; chain copies: 2;1;1;1;1; label: 5'-32P
binder,measurement,setting,value
CGCGCCAACAGCGACATCAAATTTGTCGCC (mixed) [short DNA probe (Fig 2E)],binding result,[1],binds
same,binding result,[2],binds
